In article PMC10611554, “AcbHLH144 transcription factor negatively regulates phenolic biosynthesis to modulate pineapple internal browning”:

Target: T1, GST-AcbHLH144 (pineapple, UniProt A0A6P5FRB5 1-240)
T1 sequence: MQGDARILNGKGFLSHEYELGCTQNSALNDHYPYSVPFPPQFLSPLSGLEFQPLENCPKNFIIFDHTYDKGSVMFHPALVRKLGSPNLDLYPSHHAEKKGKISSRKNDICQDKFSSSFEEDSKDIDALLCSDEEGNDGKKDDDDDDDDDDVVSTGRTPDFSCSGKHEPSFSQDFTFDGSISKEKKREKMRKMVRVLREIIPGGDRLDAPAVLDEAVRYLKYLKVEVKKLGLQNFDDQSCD
Assay: EMSA; Chemiluminescent EMSA Kit (Beyotime); buffer, salt, pH and temperature not stated
Conditions: protein: recombinant; tags: N-terminal GST (pGEX-4T-1); chain copies: 2; label: biotin; blunt

B1: Ac4CL5 promoter N-box probe (dsDNA)
DNA 1: CGGAGCACCTGCCCCTGCACGAGTACTGCTTCGAGCAGCT
DNA 2: AGCTGCTCGAAGCAGTACTCGTGCAGGGGCAGGTGCTCCG
binding result: binds
